Series [1] relates to MS2 coat protein. The experiment in a line: apparent KD of MS2 coat protein, switch ON state; designed switch direction (-1 OFF switch, 1 ON switch): -1; higher = weaker reporter binding. The note with it: FMN input: 0 or 200 uM; Eterna round: R93 (includes R88 designs). The essentials:
(§1)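 Titration buffer: 100 mM Tris-HCl pH 7.5, 80 mM KCl, 4 mM MgCl2, without or with constant ligand. Designed RNA switches transcribed on-chip from Illumina sequencing clusters received SNAP-549-labelled MS2 coat protein in twofold steps from 0.7 or 1.5 nM to 3 µM. Apparent KD is the median per design of fits to normalised cluster binding curves.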

In series [2] the test system is MS2 coat protein. The experiment in a line: apparent KD of MS2 coat protein, switch OFF state (with FMN for OFF switches, without FMN for ON switches); designed switch direction (-1 OFF switch, 1 ON switch): -1; higher = weaker reporter binding. The note with it: FMN input: 0 or 200 uM; Eterna round: R93 (includes R88 designs). The essentials: as §1
Series [3] relates to MS2 coat protein. Kind of series: apparent KD of MS2 coat protein; designed switch direction (-1 OFF switch, 1 ON switch): 1; higher = weaker reporter binding. The essentials:
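Normalised cluster fluorescence was curve-fitted, and each design's median over clusters is its apparent KD. Before this, SNAP-549-labelled MS2 coat protein was titrated from 0.7 or 1.5 nM, doubling to 3 µM, over RNA switches transcribed on Illumina chips by stalled E. coli RNA polymerase. Titrations had no input, 200 uM small-molecule ligand, or an oligonucleotide input, and steps lasted 0.8–1.5 h (lowest) to 10–20 min (highest).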

Where [4] appears, read: Eterna round: R95, input ligand: FMN 200 uM.
[5] abbreviates: Eterna round: R95, input ligand: microRNA oligo, concentration not stated.
The mark [6] stands for this setting: Eterna round: R95, input ligand: none.
Setting [7] is: input ligand: microRNA oligo, concentration not stated.

Turning to “AACAGUACAGGAUAUACAUGAGGAUCACCCAUGUGAAAAUUAAGUGGCGAACCACAAAGUAGAAGGGUACUGAA [Mat - Exclusion 3 - Eli mod - D56]”, the “apparent KD of MS2 coat protein” value was found to be 0.0387 µM with MS2 coat protein [1] and 0.0793 µM with MS2 coat protein [2].

Turning to “GGAAAACAUGAGGAUCACCCAUGUAAGGAUAUGCUAGGGAAGGAAAAAAACCCACCAGGCAGAAGGUACUAAAG [Janelle Amethyst 18 Mod 5 - Jieux - Exclusion 1]”, the “apparent KD of MS2 coat protein” value in the series with MS2 coat protein [1] is 0.0229 µM; in the series on MS2 coat protein [2], 0.0414 µM.

As for “AAACCACAUGAGGAUCACCCAUGUCAGGAUAUGAACGAAAAUAAAUAAAAAUAAAAGUUCAGAAGGGACGAAAA [66%, Wbt, 15]”, the results for the “apparent KD of MS2 coat protein” value with MS2 coat protein [1] and in the series with MS2 coat protein [2] were 0.0392 µM and 0.0372 µM, respectively.

For “AAGAACGCAGGAUAUACAUGAAAGAAAGAAAAGAAAAGAAAACAUGAGGAUCACCCAUGUAGAAGGGCGAAGAA [EteRNA is fun!]”, the “apparent KD of MS2 coat protein” value with MS2 coat protein [1] was found to be 0.0379 µM; in the series with MS2 coat protein [2], 0.0396 µM.

In the case of “AGCUAGUGAGGAUAUACGAACAAGUAAACGGACUGUAAGGGACAUGAGGAUCACCCAUGUAGAAGGCACUAGCA [Diamond 59]”, the “apparent KD of MS2 coat protein” value in the series on MS2 coat protein [1] worked out at 0.0286 µM; in the series with MS2 coat protein [2], 0.0745 µM.

With “AAAAAGUCAGGAUAUCGGAAAAAAAAAAAAAAAAAAAAAAACGAGAAGGGACAUGAGGAUCACCCAUGUAUGAC [Ex 4 May 7]”, the “apparent KD of MS2 coat protein” value in the series on MS2 coat protein [1] is 0.0569 µM; in the series with MS2 coat protein [2], 0.243 µM.

Consider “GUAAAACAUGAGGAUCACCCAUGUCAACAAAGUCGAGGAUAUGGGCAAAUAAAAUAAGAACCAGAAGGCGAAUAAC [salish99_SS1_r3_010] (puzzle: Same State 1)”, for which the “apparent KD of MS2 coat protein” value in the series with MS2 coat protein [3] (setting [4]) came to 0.0458 µM; in the series on MS2 coat protein [3] (setting [5]), 0.377 µM; in the series on MS2 coat protein [3] (setting [6]), 0.371 µM.

Consider “UGAAUAGUUACAGGAUAUGAUCCGAAAAUUGGGUCAGAAGGGUGGGUGUUGUGCGCUAUGUGCUACAUGAGGAUCACCCAUGUU [SameState NG1 #36] (Eterna round: R96, puzzle: Same State NG 1)”, for which the “apparent KD of MS2 coat protein” value in the series on MS2 coat protein [3] (input ligand: FMN 200 uM) was found to be 0.341 µM; in the series on MS2 coat protein [3] (setting [7]) it was 0.0225 µM; in the series with MS2 coat protein [3] (input ligand: none) it was 0.0412 µM.

With “AGCUAUUAAUCAGGAUAUAGUGACAUGAGGAUCACCCAUGUAUUAAUGAUGAAAUGUGGUCGCCGCUAGAAGGGAUUACUAACA [SameState NG2 #44] (Eterna round: R96, puzzle: Same State NG 2)”, the “apparent KD of MS2 coat protein” value in the series with MS2 coat protein [3] (input ligand: FMN 200 uM) amounted to 0.0671 µM; in the series with MS2 coat protein [3] (setting [7]), 0.022 µM; with MS2 coat protein [3] (input ligand: none), 0.0301 µM.

Regarding “UUGAAGAAUUAAGGAUAUCGAGUCGUCAAAUUAAACAUGAGGAUCACCCAUGUGGGUUGCGGUAUCGAGAAGGUAAAUUACUAG [JL JR Sub099 mod 4] (Eterna round: R96, puzzle: Same State NG 2)”, the “apparent KD of MS2 coat protein” value came out at 0.0119 µM with MS2 coat protein [3] (input ligand: FMN 200 uM), 0.0152 µM in the series with MS2 coat protein [3] (setting [7]) and 0.0323 µM in the series with MS2 coat protein [3] (input ligand: none).

Consider “GUUAGGAAUCUAGCAAACAUGAGGAUCACCCAUGUAAGUGGGAAGGAUAUGGUACAGAAACUGUACCAGAAGGUCUUAUUGUUU [Omei SS(NG) 3 AV8] (Eterna round: R96, puzzle: Same State NG 3)”, for which the results for the “apparent KD of MS2 coat protein” value in the series on MS2 coat protein [3] (input ligand: FMN 200 uM), in the series on MS2 coat protein [3] (setting [7]) and in the series with MS2 coat protein [3] (input ligand: none) were 0.602 µM, 0.0175 µM and 0.28 µM, respectively.

With “GGAGAGAGAGCGGAGGAUAUUCAAGGAGAGACAUGAGGAUCACCCAUGUAAGAGAGAGAGGAGAGGAAGAAGGCUGAGAGAGAGG [Altered State 2-10 - Jieux - Same State 2] (puzzle: Same State 2)”, the “apparent KD of MS2 coat protein” value was found to be 0.0321 µM in the series with MS2 coat protein [3] (setting [4]), 0.0269 µM with MS2 coat protein [3] (setting [5]) and 0.0428 µM in the series with MS2 coat protein [3] (setting [6]).

For the sequence “UUUAUAUUCAGAGGAUAUUGAUGUUGUAUUUUACAAGAAGGCUGAUUGUUUUGUAAUGUUAUUAUACAUGAGGAUCACCCAUGU [JR_SSNG1_Sub014] (Eterna round: R96, puzzle: Same State NG 1)”, the “apparent KD of MS2 coat protein” value in the series on MS2 coat protein [3] (setting [7]) worked out at 0.0173 µM.

Consider “UUAAUAAAGUAAGGAUAUACAUGAGGAUCUCUCGUAGAAGGUACUAUACAUGAGGAUCACCCAUGUGCCGGUCCGUAGACUGGA [Mat - Same State NG 1 - JL mod - D7] (Eterna round: R96, puzzle: Same State NG 1)”, for which the “apparent KD of MS2 coat protein” value with MS2 coat protein [3] (setting [7]) is 0.124 µM.

As to “GUAAAGAAAUAAGGAUAUUGAAUACAUAUGUUUAACAUGAGGAUCACCCAUGUGGGUUGCGGUAUCGAGAAGGUAUAAUAAAAG [Mat - Same State NG 2 - JL mod - D8] (Eterna round: R96, puzzle: Same State NG 2)”, the “apparent KD of MS2 coat protein” value in the series on MS2 coat protein [3] (input ligand: FMN 200 uM) is 0.162 µM; with MS2 coat protein [3] (setting [7]), 0.171 µM; in the series with MS2 coat protein [3] (input ligand: none), 0.168 µM.

As for “UGUUGUAUUACAGGAUAUCUAUUAAUUUUAUUUAGAGAAGGGUAUUCACAUGAGGAUCACCCAUGUAUAUACGAGGAAGUUGUG [JMF's solution 13] (Eterna round: R96, puzzle: Same State NG 1)”, in the series on MS2 coat protein [3] (setting [7]), the “apparent KD of MS2 coat protein” value stood at 0.0387 µM.

Turning to “GUGGUCAGACAUGAGGAUCACCCAUGUGGAAUAAAUAACACACAGGAUAUGUAAUAUAAAAUAUAACAGAAGGGUGGAUUGGUG (Eterna round: R96, puzzle: Same State NG 3)”, in the series with MS2 coat protein [3] (setting [7]), the “apparent KD of MS2 coat protein” value stood at 0.213 µM.

Turning to “CAGCGCUGUCGAGAGGAUAUGCGGUGAUGGACAUGAGGAUCACCCAUGUUAGCGACAGCAUCACGGCAGAAGGCUCUAUCGCUGC [Soteed Omei mod 29] (puzzle: Same State 2)”, the “apparent KD of MS2 coat protein” value in the series with MS2 coat protein [3] (setting [4]) was 0.0242 µM; in the series with MS2 coat protein [3] (setting [5]) it was 0.0395 µM; with MS2 coat protein [3] (setting [6]) it was 0.0489 µM.

Turning to “GUUACAUGAGGAUCACCCAUGUAUGUGUGGGAGUAAGUGUCUUAGGAUAUCUAUUAUUUAAGUUAAGAGAAGGAAGAUUGUUGU [JMF's solution 23] (Eterna round: R96, puzzle: Same State NG 3)”, the “apparent KD of MS2 coat protein” value came out at 0.121 µM in the series with MS2 coat protein [3] (input ligand: FMN 200 uM), 0.0947 µM in the series with MS2 coat protein [3] (setting [7]) and 0.114 µM in the series with MS2 coat protein [3] (input ligand: none).

Regarding “GAGGCACAUGAGGAUCACCCAUGUGGGCGGAACAUAGGAUAUCGCCAACAAUAAGCCCGGUGAGAAGGAUGAUGCC [Lexereat] (puzzle: Same State 1)”, the “apparent KD of MS2 coat protein” value in the series with MS2 coat protein [3] (setting [4]) was 0.0462 µM; with MS2 coat protein [3] (setting [5]), 0.0176 µM; with MS2 coat protein [3] (setting [6]), 0.0364 µM.

As to “CGUUCUUACUCGGUACGGUGAGUAGAGGAACAUGAGGAUCACCCAUGUAUGAGCUUUUUGCUCGUGAUUAACAGUAG [JR_SHM208a_Sub014] (puzzle: Sensor for hsa-mir-208a)”, the “apparent KD of MS2 coat protein” value with MS2 coat protein [3] (setting [4]) stood at 0.058 µM; in the series on MS2 coat protein [3] (setting [5]), 0.0633 µM; in the series on MS2 coat protein [3] (setting [6]), 0.105 µM.

For “UUGCGCUGUCGAGAGGAUAUGCGGUGAUGGACAUGAGGAUCACCCAUGUUAGCGAUAGCAUUACGGUAGAAGGCUCUUCAGCUGC [salish99_ss2_r3_095] (puzzle: Same State 2)”, the “apparent KD of MS2 coat protein” value with MS2 coat protein [3] (setting [4]) was 0.0162 µM; with MS2 coat protein [3] (setting [5]) it was 0.0218 µM; in the series on MS2 coat protein [3] (setting [6]), 0.0262 µM.

Regarding “UGUAAACAUGAGGAUCACCCAUGUAAUAUAAUGGGAGGAUAUCUGAAUUAAUUAAAUUAAGGAGAAGGCCUAAUGU [Mat - Same State 1 - Mod of Eli - D47] (puzzle: Same State 1)”, the “apparent KD of MS2 coat protein” value was 0.0532 µM in the series on MS2 coat protein [3] (setting [4]), 0.288 µM with MS2 coat protein [3] (setting [5]) and 0.482 µM with MS2 coat protein [3] (setting [6]).
